Key:
trypsin = target: T1, trypsin (Bos taurus, UniProt P00760); test: Trypsin degradation assay; assay type: in vitro ADME
T1 sequence (P00760 24-246): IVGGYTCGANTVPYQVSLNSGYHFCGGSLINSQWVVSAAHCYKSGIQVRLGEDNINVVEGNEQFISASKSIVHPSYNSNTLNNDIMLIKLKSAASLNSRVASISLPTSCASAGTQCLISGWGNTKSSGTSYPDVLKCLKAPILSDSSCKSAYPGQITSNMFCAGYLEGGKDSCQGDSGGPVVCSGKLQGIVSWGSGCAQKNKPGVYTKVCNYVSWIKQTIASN

[1] = cited from earlier work

Substance	degradation half-life compared to HI + free Prg-SFTI 7 (trypsin; enzyme/substrate ratio 1:2)	degradation half-life compared to HI + free Prg-SFTI 7 (trypsin; enzyme/substrate ratio 1:4)	pKa of the lysine side-chain amine [1]	pKa of the two N-terminal amines (A1 and B1) [1]
SFTI-Triazolyl-(GQAP)49-GQEP-Cys(B29Nε-Acetyl desB30 Human Insulin) (bicyclic or more) [insulin-SFTI 9]	3 times	twice as long	–	–
insulin	–	–	~10	~7
